According to patent US20100291638:

Assays:
Conditions in all cases: dNTP incorporation; background <500
[1] = system: T1, DNA polymerase clone 1753 (uncultured hot spring virus (Great Boiling Spring))
T1 sequence: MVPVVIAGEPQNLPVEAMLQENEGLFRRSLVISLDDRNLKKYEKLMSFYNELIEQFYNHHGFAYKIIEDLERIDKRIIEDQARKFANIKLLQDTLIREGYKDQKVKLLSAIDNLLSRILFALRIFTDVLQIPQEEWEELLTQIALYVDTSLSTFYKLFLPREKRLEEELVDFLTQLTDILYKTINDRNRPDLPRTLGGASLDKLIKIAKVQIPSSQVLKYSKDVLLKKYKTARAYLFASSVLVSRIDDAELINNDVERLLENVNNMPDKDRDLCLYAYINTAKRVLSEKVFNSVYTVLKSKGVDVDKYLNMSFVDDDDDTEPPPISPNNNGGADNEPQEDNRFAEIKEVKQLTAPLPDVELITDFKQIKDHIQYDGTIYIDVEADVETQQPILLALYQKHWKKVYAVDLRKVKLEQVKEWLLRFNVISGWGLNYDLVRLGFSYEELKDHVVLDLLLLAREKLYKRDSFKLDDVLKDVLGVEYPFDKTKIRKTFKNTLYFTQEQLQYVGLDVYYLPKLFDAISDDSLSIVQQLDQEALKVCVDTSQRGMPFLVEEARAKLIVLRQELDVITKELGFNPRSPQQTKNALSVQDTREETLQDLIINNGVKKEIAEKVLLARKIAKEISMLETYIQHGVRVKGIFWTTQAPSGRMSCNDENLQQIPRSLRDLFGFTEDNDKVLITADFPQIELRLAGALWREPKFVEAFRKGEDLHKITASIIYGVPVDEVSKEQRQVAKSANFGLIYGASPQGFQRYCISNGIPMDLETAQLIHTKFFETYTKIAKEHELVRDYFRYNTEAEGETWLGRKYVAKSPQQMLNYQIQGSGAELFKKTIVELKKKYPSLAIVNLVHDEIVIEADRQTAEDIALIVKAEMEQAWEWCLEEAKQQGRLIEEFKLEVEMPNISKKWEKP

[2] = system: T2, DNA polymerase clone 1773 (uncultured hot spring virus (Great Boiling Spring))
T2 sequence: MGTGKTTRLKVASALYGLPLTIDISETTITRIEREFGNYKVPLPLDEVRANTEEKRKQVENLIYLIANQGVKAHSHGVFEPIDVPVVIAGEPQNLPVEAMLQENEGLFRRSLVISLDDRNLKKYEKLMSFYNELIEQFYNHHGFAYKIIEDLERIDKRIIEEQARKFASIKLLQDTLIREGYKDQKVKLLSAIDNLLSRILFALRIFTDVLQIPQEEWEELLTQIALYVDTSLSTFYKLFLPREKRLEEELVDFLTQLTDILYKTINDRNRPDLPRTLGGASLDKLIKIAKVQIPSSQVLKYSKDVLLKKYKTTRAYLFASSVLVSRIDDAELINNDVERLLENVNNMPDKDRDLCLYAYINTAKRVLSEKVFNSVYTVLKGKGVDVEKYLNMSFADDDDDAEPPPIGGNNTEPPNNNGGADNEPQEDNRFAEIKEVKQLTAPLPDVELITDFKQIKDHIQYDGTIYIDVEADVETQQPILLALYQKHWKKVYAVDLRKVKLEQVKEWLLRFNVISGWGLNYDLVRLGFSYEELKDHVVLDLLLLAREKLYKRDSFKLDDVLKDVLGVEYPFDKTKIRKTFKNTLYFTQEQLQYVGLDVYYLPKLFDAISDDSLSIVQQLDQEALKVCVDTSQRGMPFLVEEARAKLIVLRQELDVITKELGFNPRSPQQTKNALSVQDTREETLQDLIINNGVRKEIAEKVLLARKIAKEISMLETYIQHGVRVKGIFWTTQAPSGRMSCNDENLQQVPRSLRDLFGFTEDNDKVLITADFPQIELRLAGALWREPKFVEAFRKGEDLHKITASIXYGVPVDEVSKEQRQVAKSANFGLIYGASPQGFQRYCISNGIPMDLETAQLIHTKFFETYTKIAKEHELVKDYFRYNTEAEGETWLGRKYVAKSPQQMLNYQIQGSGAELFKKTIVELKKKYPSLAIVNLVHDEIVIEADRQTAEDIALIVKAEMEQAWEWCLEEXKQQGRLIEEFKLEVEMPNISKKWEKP

[3] = system: T3, DNA polymerase clone 1937 (uncultured hot spring virus (Great Boiling Spring))
T3 sequence: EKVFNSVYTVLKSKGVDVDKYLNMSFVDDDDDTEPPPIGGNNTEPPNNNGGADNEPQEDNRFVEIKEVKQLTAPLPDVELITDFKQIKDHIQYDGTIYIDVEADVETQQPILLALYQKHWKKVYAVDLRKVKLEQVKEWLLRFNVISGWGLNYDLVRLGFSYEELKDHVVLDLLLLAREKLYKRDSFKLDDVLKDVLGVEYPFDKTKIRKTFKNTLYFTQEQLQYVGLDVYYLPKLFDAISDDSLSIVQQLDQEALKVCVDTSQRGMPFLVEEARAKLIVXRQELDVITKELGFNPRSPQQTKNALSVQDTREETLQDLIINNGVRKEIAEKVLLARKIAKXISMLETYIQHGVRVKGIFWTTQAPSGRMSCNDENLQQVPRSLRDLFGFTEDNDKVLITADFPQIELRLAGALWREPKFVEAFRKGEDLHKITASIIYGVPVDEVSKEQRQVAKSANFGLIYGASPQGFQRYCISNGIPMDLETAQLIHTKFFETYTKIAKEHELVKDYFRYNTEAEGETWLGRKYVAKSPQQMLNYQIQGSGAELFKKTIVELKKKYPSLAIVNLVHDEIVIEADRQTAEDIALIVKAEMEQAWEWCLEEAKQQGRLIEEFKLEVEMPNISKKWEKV

activated calf thymus DNA
activity [1]: 141000 cpm | activity [2]: 124000 cpm | activity [3]: 70300 cpm
